The values below come from PMC4027190.

A short description of this data set: western blot (and ELISA for N38S) of culture media. As to conditions: glycan lost; control: wild type.

B1: matrix metalloproteinase-9 (MMP-9): mS38 (protein)
parent chain: MSLWQPLVLVLLVLGCCFAAPRQRQSTLVLFPGDLRTNLTDRQLAEEYLYRYGYTRVAEMRGESKSLGPALLLLQKQLSLPETGELDSATLKAMRTPRCGVPDLGRFQTFEGDLKWHHHNITYWIQNYSEDLPRAVIDDAFARAFALWSAVTPLTFTRVYSRDADIVIQFGVAEHGDGYPFDGKDGLLAHAFPPGPGIQGDAHFDDDELWSLGKGVVVPTRFGNADGAACHFPFIFEGRSYSACTTDGRSDGLPWCSTTANYDTDDRFGFCPSERLYTQDGNADGKPCQFPFIFQGQSYSACTTDGRSDGYRWCATTANYDRDKLFGFCPTRADSTVMGGNSAGELCVFPFTFLGKEYSTCTSEGRGDGRLWCATTSNFDSDKKWGFCPDQGYSLFLVAAHEFGHALGLDHSSVPEALMYPMYRFTEGPPLHKDDVNGIRHLYGPRPEPEPRPPTTTTPQPTAPPTVCPTGPPTVHPSERPTAGPTGPPSAGPTGPPTAGPSTATTVPLSPVDDACNVNIFDAIAEIGNQLYLFKDGKYWRFSEGRGSRPQGPFLIADKWPALPRKLDSVFEERLSKKLFFFSGRQVWVYTGASVLGPRRLDKLGLGADVAQVTGALRSGRGKMLLFSGRRLWRFDVKAQMVDPRSASEVDRMFPGVPLDTHDVFQYREKAYFCQDRFYWRVSSRSELNQVDQVGYVTYDILQCPED
With B1, the expression_or_secretion result is “no change”.
